Source: US8247195

Target: H-NS (Salmonella enterica serovar Typhimurium 14028s) (UniProt A0A0F6B244)
Conditions: ChIP/Q-PCR, formaldehyde crosslinked, anti-HA; value given as example of copies recovered per marA copy

Sequence of UniProt A0A0F6B244 (A0A0F6B244 whole entry): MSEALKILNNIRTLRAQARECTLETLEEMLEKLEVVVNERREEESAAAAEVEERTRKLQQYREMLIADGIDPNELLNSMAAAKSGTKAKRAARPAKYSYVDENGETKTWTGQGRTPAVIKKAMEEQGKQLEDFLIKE

With proV the binding signal (fold enrichment vs marA) was 53.6.
